Patent US8821836B2, “SPARC binding peptides and uses thereof” (Abraxis BioScience, LLC, priority 2008, dated 2014)

T1: SPARC (Homo sapiens, UniProt P09486)
T1 sequence (P09486 18-303): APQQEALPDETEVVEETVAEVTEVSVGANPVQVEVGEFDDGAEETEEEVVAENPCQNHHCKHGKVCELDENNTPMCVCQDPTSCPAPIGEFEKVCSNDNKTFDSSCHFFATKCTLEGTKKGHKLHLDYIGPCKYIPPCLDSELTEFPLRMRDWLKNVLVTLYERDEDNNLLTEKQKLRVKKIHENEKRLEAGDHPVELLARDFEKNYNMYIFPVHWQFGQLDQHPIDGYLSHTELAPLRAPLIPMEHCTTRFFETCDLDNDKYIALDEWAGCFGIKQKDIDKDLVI

B1: ScFv 3-2: unique ScFv against SPARC from HuScL-3 library, among SEQ ID NOs: 113-116 (protein)
scFv: EIVMTQSPGTLSLSPGDRATLSCRASQSVSGYLAWYQQKPGQAPRLLIYDASNRATGIPARFSGSGSGTDFTLTISSLQAEDVAVYYCQQYYSTLPTFGQGTKLEIKRSGGSTITSYNVYYTKLSSSGTQVQLVQSGGGVVQPGRPLKLSCAASGFTFSSYAMHWVRQAPGKGLEWVAVISYDGSNKYYADSVKGRFTISRDNSKNTLYLQMNSLRAEDTAVYYCARDLSWNDAFDIWGQGTMVTVSSAS
B2: ScFv 2-2: unique ScFv against SPARC from HuScL-2 library, among SEQ ID NOs: 113-116 (protein)
scFv: EVQLLESGGGLVQPGGSLRLSCAASGFTFSSYAMSWVRQAPGKGLEWVSHIQGQGRATYYADSVKGRFTISRDNSKNTLYLQMNSLRAEDTAVYYCAKTHGKFDYWGQGTLVTVSSGGGGSGGGGSGGGGSTDIQMTQSPSSLSASVGDRVTITCRASQSISSYLNWYQQKPGKAPKLLIYRASRLQSGVPSRFSGSGSGTDFTLTISSLQPEDFATYYCQQPSGVPTTFGQGTKVEIK
B3: ScFv 2-1: unique ScFv against SPARC from HuScL-2 library, among SEQ ID NOs: 113-116 (protein)
scFv: EVQLLESGGGLVQPGGSLRLSCAASGFTFSSYAMSWVRQAPGKGLEWVSMITPLGSTTAYADSVKGRFTISRDNSKNTLYLQMNSLRAEDTAVYYCAKRAGVFDYWGQGTLVTVSSGGGGSGGGGSGGGGSTDIQMTQSPSSLSASVGDRVTITCRASQSISSYLNWYQQKPGKAPKLLIYRASTLQSGVPSRFSGSGSGTDFTLTISSLQPEDFATYYCQQNDSFPTTFGQGTKVEIKR

Molecular target: T1, SPARC
Experiment: scFv phage display screening and soluble scFv ELISA with SPARC as antigen
Type: binding
From the text: The overall strategy was to first, screen a human antibody phage display libraries by ELISA with SPARC as antigen.
At the start, HuScL-3® was screened four rounds (three rounds with acidic elution and one round with competitive elution) and 17 positive clones were selected by phage ELISA. […] After that, the binding specificity of the two unique antibodies was validated by soluble scFv ELISA.
Next, HuScL-2® was screened for three rounds (two rounds with trypsin-digestion elution and one round with competitive elution). In the end, 30 positive clones were selected by phage ELISA. According to the sequencing results, 29 clones shared one antibody sequence and the remaining one clone encoded another unique antibody. After that, the binding specificity of these two antibodies was validated by soluble scFv ELISA as well.

SPARC binding of scFv | Molecule
SPARC binding activity | B1
SPARC binding activity | B2
SPARC binding activity | B3
